The supplement of paper PMC9170038

System: K4 kissing-loop RNA reporter
Experiment: apparent KD of K4 kissing-loop reporter; higher = weaker reporter binding
Conditions: Eterna round: R107
Protocol: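 RNA-MaP round R107: designed RNA switches with theophylline, tryptophan, arginine or FMN aptamers are transcribed on-chip within common flanks. They are titrated with a labelled K4 kissing-loop RNA reporter in RNA-MaP buffer (100 mM Tris pH 7.5, 80 mM KCl, 4 mM MgCl2), without ligand or with the indicated ligand. Median apparent KD per design.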

[1] = input ligand: theophylline 20 uM
[2] = input ligand: tryptophan 2.4 mM
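Note: bound reporter read as fluorescence of individual clusters on recovered sequencing chips by microscopy, with normalized cluster intensities fitted with a binding model.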

Sequence	apparent KD of K4 kissing-loop reporter (input ligand: FMN 200 uM)	apparent KD of K4 kissing-loop reporter (input ligand: arginine 13.2 mM)	apparent KD of K4 kissing-loop reporter (input ligand: none)	apparent KD of K4 kissing-loop reporter [1]	apparent KD of K4 kissing-loop reporter [2]
CGUUCCUCUGUCGAUACCAGCUUCAGUUGGCGGCCAGUGAUGUUGGUAUUGCCGAUGCCAAGCCCUUGGCAGCGAUAUGAGACCC [Aredi]	572 nM	403 nM	597 nM	265 nM	439 nM
CGUUUAUAGCAGGAUACCAGUACCCAUAAAGUACGUUAAUAGUAGAGUGAUGUUCUAAAGUACCCUUGGCAGCUUCCCGUGAGUG [ExTheophylB.T]	88.9 nM	129 nM	103 nM	134 nM	67.8 nM
CGUUUAUAGCAGGAUACCAGUACCCAUUAUGUACGUUUAUAGUAGAGUGAUGUUCUAAAGUACCCUUGGCAGCUUCCCGUGACCC [ExTheophylB.Z]	113 nM	171 nM	131 nM	179 nM	85.4 nM
CGUUUAUAGCAGGAUACCAGUACGGAUAAAGUACGUUAAUAGUAGAGUGAUGUUCUAAAGUACCCUUGGCAGCUUAGAGUGAGUG [ExTheophylB.O]	107 nM	149 nM	112 nM	144 nM	78.1 nM
CGUUUAUAGCAGGAUACCAGUACGGAUAAGGUACGUUAAUAGUAGAGUGAUGUUCUAAAGUACCCUUGGCAGCUUAGAGUGAGUG [#20 K4 Theophylline B Exclusion]	90.3 nM	147 nM	142 nM	126 nM	92.2 nM
CGUUUAUAGGAGGAUACCAGUACGGAUAAAGUACGUUAAUAGUAGAGUGAUGUUCUAAAGUACCCUUGGCAGCUUAGAGUGAGUG [ExTheophylB.N]	100 nM	104 nM	106 nM	121 nM	73.6 nM
CUCGUGGGUUUGAGAGGGCUUGUGGGAAGUAAGGAUAUUUAGGGAGGAAGAAGGUACUAUAGAAUAUAGUGAUGUUAUAUAUGGG [SSFMNA.Y]	301 nM	224 nM	289 nM	406 nM	244 nM
CUGAGCCUGACGAAAGUCAGGCUCUGCGAGCGAGGACCGGUACGGCCGCCACUCGGUGCAGUGAUGUUGCAUGGCCGCAAGGCCG [#2 Exclusion - Tryptophan A Attempt #18 (HarryS)]	263 nM	289 nM	207 nM	256 nM	262 nM
CUGCAAAAGUCGGCCGCCACUCCGGGCCCUAUAAAUGGGCGCAGUGAUGUUGCGGCUAGGCCUCUGAGGACCGGGACUUUGUAAC [Aratan]	190 nM	64.7 nM	87 nM	131 nM	218 nM
CUGUAUCAUAUUGAUACCAGAGAAAGAACCAGUGAUGUUGGAAAAGACGAAUAAAUUAUACUCCCUUGGCAGCGGAAAUGAACAG [Totally accidental]	73 nM	85.6 nM	75.8 nM	105 nM	59.9 nM
CUUGGUCUACGAAGGAGCGCCGUGCAGUGAUGUUGCAGUCAGAUCGAGUGAUGUUUCGGGCGGCAGGUAGGUCGCGUGGCCCUUU [Excusion Arginine B GF 26]	633 nM	455 nM	613 nM	587 nM	579 nM
GACAGUCGGUGUUAAUGACAGUUACGCGAUACCAGCGAAACAGUACGCCCUUGGCAGCGCAGUGAUGUUGCGCGCCUAGUGUGGU [Esbiceve]	99.5 nM	94.8 nM	101 nM	92.5 nM	97.2 nM
GACCUAAGCUAUGAUACCAGUCUGGCACGAAGAAGUGAUGUUUCCCAGCGUUUGUCACUUGACCCUUGGCAGCAUGCGAUCAGCU [theeternabot_sameState_KL_Theo_B_29]	197 nM	106 nM	151 nM	165 nM	128 nM
GACGUUGAAGCGGCCGCCACUAGGAAGGGUACGGAGAGUACAUCUCACGGAGAGUGAUGUUCUCAUAGGACCGGGCUCAUAUCAA [theeternabot_sameState_KL_Trp_B_21]	308 nM	215 nM	605 nM	238 nM	362 nM
GAGGAUUGAACGGCCGCCACUGCGCGCAGCUGCAAUCGAGUGAUGUUCCAUCAGUUGUCCAGUUCCAGGACCGGGUUCCGAUGCC [theeternabot_exclusion_KL_Trp_B_12]	499 nM	245 nM	401 nM	535 nM	471 nM
GAUACGAAGCAGUGAUGUUGCUUAUGAGAAGGAGCGCACGAAAGUGCAGGUAGGUCGCUCAGCCAUGUGGACGAAAACGUCCACA [whbob_SS_Arginine_A_sa111]	90.2 nM	109 nM	97.4 nM	126 nM	78.1 nM
GAUGAAUGCGGAAGGAGCGAGUUUUUGGGAGUGAUGUUCCCUGCAUAUGCACGUGGGAAAGCUCAGGUAGGUCGCCGCGCUUGUU [Same State Arginine B GF 28]	183 nM	244 nM	324 nM	208 nM	204 nM
GAUGGUGGCAGUGAAGUGAUGUUUCAUGAUACCAGUUUUAUAAGUAACCCUUGGCAGCAUCGUACGCAGCGUAGUGGACAUCACG [theeternabot_exclusion_KL_Theo_A_25]	129 nM	128 nM	140 nM	241 nM	149 nM
GAUGUUUGCCGAAGGAGCGAGUAUUCGCCAGUGAUGUUGGUGAGAUAUACACGUAUCAGUGCUCAGGUAGGUCGCGGCGCUUGUU [Same State Arginine B GF 27]	123 nM	107 nM	129 nM	135 nM	117 nM
GAUUCUGUUCGAAAGAACGGAAUCUCGGAAGGAGCGAGAGAAAUCUCAGGUAGGUCGCCGAAUUUUUGAUAGUGAUGUUAUCAUU [Arginine A K4 3]	432 nM	380 nM	441 nM	393 nM	397 nM
GAUUUAGAGGCGGCCGCCACUAGUGAUGUUAGUGAUGUUUGAUACUGAAUAUAUCUGCGAGUAGAUAGGACCGGGCCAGAUGGAG [plmfmullin]	225 nM	154 nM	195 nM	179 nM	182 nM
GAUUUAGAGGCGGCCGCCACUAGUGAUGUUAGUGAUGUUUGAUACUGUAUAUAUCGGCGUGUAGAUAGGACCGGGCCAGAUGGAG [tbqqmullin]	281 nM	157 nM	235 nM	229 nM	221 nM

Sequence	apparent KD of K4 kissing-loop reporter (input ligand: FMN 200 uM)	apparent KD of K4 kissing-loop reporter (input ligand: arginine 13.2 mM)	apparent KD of K4 kissing-loop reporter (input ligand: none)	apparent KD of K4 kissing-loop reporter [1]	apparent KD of K4 kissing-loop reporter [2]
GAUUUAGAGGCGGCCGCCACUAGUGAUGUUAGUGAUGUUUGAUAGGGAAUAUAUCAGCGAGUAGAUAGGACCGGGCCAGAUGGAG [gtggbmullin]	248 nM	183 nM	203 nM	189 nM	167 nM
GCAAACCUCAGUGAUGUUGAGUAAUCGGAAGGAGCGCGUGAAAACGCAGGUAGGUCGCCGAUACAUGAAGUAUCUUCGUGUUUGC [Arginine A K4 23]	284 nM	365 nM	354 nM	380 nM	274 nM
GCACACUAGUAAACUAGUGUGUUAACUGAAGGAGCGUGAAUAAUCACAGGUAGGUCGCAGUUUGUCAGUGAUGUUGACACGAGUG [Arg A SS t2]	165 nM	217 nM	249 nM	247 nM	179 nM
GCAGGACGAUGAGGAGGAUGAAUUACUGAAGGAGCGCAUAUGGUUGCAGGUAGGUCGCGGUGAACAAGUAUAGUGAUGUUAUAUC [SSArgA.R]	755 nM	179 nM	138 nM	471 nM	1050 nM
GCAGUGAUGUUGCGAAUCGGCCAUGAUACAGAGGAUAUCGUGCCUUCGAGAAGGUUGUAUAGAGGAUACGAUAUUAUAAAUGACG [Same State FMN A GF 1]	353 nM	384 nM	432 nM	436 nM	348 nM
GCAGUGAUGUUGCGGAUGUACAGUGGAGUGCGAGGACCGGUACGGCCGCCACUCGUACAGAACAAGCUAAUAUAUCGAUAGGUGA [X]	203 nM	242 nM	263 nM	282 nM	157 nM
GCAGUGAUGUUGCGGAUGUACAGUGGCGUGCGAGGACCGGUACGGCCGCCACUCGUACAGAGCCAGCUAAUACAUCGAUAGGUGA [whbob_SS_Tryp_A_m6]	289 nM	177 nM	239 nM	296 nM	322 nM
GCAGUGAUGUUGCGGAUGUACAGUGGCGUGCGAGGACCGGUACGGCCGCCACUCGUACAGAGCCAGCUAAUACAUCGAUUGGUGA [whbob_SS_Tryp_A_m7]	387 nM	176 nM	206 nM	157 nM	212 nM
GCAGUGAUGUUGCUGAUGUACAGUGGGAUACGAGGACCGGUACGGCCGCCACUCGUACAGAACUUAUUAAUACAUCGAUAAGUGA [XIV]	534 nM	612 nM	710 nM	643 nM	687 nM
GCCGUACGCAUGGAUACCAGCAAUCAAACGUCAUGCGAAGUGAUGUUUCGCUUACGGUAGUGCCCUUGGCAGCCAUGCGUACGGC	142 nM	124 nM	123 nM	91.2 nM	130 nM
GCCGUACGCAUGGAUACCAGCACUCGUUGAGUGAUGUUCACGAGGUGGUAUUCGACGGGCUGCCCUUGGCAGCCAUGCGUACGGC	111 nM	87.3 nM	102 nM	99 nM	121 nM
GCCGUACGCAUGGAUACCAGCAGAACUGCCCUCCCAGUGAUGUUGGGAGGAUCUUUCCUAUGCCCUUGGCAGCCAUGCGUACGGC	148 nM	113 nM	126 nM	117 nM	117 nM
GCCGUACGCAUGGAUACCAGCAUCGACUCAUAUACAGUGAUGUUGUGUAAUGACCUCAUUUGCCCUUGGCAGCCAUGCGUACGGC	471 nM	291 nM	620 nM	857 nM	800 nM
GCCGUAGAUUGAAGGAGCGGCUUCAUCAAAUCUCUUGCCCGCACCAGUGAUGUUGGUGUUAGCCAGGUAGGUCGCAAUCUACGGC	577 nM	376 nM	583 nM	493 nM	465 nM
GCCUGAGCACGAAGGAGCGCCGUGACAGGUUACUGCCUUGGGCAGUGAUGUUGCUCAAUCUGGCAGGUAGGUCGCGUGCUCAGGC	165 nM	161 nM	162 nM	131 nM	167 nM
GCCUGUGCGCGAAGGAGCGCCGUGACAGGUUACUGCCUUGGGCAGUGAUGUUGCUCAAUCUGGCAGGUAGGUCGCGUGCACAGGC	236 nM	187 nM	201 nM	156 nM	192 nM
GCGAACAUUCGCAGUGAUGUUGCGACGGAAGGAGCGCGUGAAAACGCAGGUAGGUCGCCGACAACAUUAAUUUUAAUGUGUUCGC [Arginine A K4 28]	411 nM	308 nM	425 nM	356 nM	256 nM
GCGAAGAGAGAAGGAUAUUAGUAAUGCGUCAUGCGCCCUUACCAGUUAGUGAUGUUAACAAUACAUUAAGAAGGUCUCGGAAUCC [theeternabot_sameState_KL_FMN_B_50]	297 nM	169 nM	187 nM	215 nM	185 nM
GCGCAUGUUAAAGGAUAUAGCAGGUGAUACAAGAAAGUGAGUGAUGUUUAUGUAGAUGAUGAUAUGUUAGAAGGUUAACAAGCGC [abcdefghijklmnop]	693 nM	639 nM	842 nM	788 nM	600 nM
GCGGCCCAGCCGGAUACCAGUGACCCGCUGGGAACCGCGGGCCCAGAGUGAUGUUCGGGACACCCUUGGCAGCCGCCUGGGACGC [#2 Same State - Theophylline B Attempt #17 (HarryS)]	588 nM	126 nM	546 nM	334 nM	193 nM
GCUAGCAUGGCAGGAUAUAGCAAUAGGAGUGAUGUUCCUUGGUAGGUGAGUGAUGUUCACUACCAACUAGAAGGGCCAUGCUAGC	139 nM	111 nM	126 nM	108 nM	129 nM
GCUAGGAUGGCAGGAUAUAGUUCGUGAGUGAUGUUCAAAGAACUAAGAGGGACACCUCAUUCUAAACUAGAAGGGCCAUCCUAGC	246 nM	275 nM	276 nM	421 nM	337 nM
